Results published in patent publication US20020131964A1.

Tests used:
[1] = target: two chain urokinase (tcuPA) (Homo sapiens (Human)) (UniProt P00749); test: cell-based or functional assay
[2] = target: wild type single chain urokinase (scuPA) (Homo sapiens (Human)) (UniProt P00749); test: cell-based or functional assay

- EC50 of phenylepherine (PE)-induced contraction of rat aortic rings [1]: 29 nM
- EC50 of phenylepherine (PE)-induced contraction of rat aortic rings [2]: 29 nM
Substance: soluble recombinant human urokinase receptor (suPAR) (from UniProt Q03405 23-299)
